For series [1], the system named is HeLa Kyoto. In words: solubility in G1/S (NP-40 vs SDS abundance) (log2 ratio); higher = more soluble. The following applies: cell cycle stage: G1/S.
Series [2] has as its system HeLa Kyoto. Nature of the series: thermal stability score vs G1/S (z-score of summed log2 fold changes over temperatures); higher = more thermally stable than in G1/S.
The subject of series [3] is HeLa Kyoto. In words: melting temperature (median over replicates), in situ; higher = more thermally stable.
Series [4] concerns HeLa Kyoto. In words: solubility change mitosis vs G1/S (difference of NP-40 vs SDS log2 ratios) (log2 ratio difference); higher = more soluble in mitosis.
Where [5] appears, read: cell cycle stage: early G1 (4.5 h after nocodazole release).
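Throughout, for melting temperature (median over replicates), in situ: HeLa Kyoto cells synchronized by double thymidine or nocodazole block, proteins quantified by TMT10plex mass spectrometry, three independent biological replicates.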
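Throughout, for solubility change mitosis vs G1/S (difference of NP-40 vs SDS log2 ratios): synchronized HeLa Kyoto cells (double thymidine block for G1/S, nocodazole release for mitosis), protein amounts in NP-40 versus SDS lysates quantified by mass spectrometry, three biological replicates.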
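Throughout, for solubility in G1/S (NP-40 vs SDS abundance): HeLa Kyoto cells arrested at G1/S by double thymidine block, proteins quantified by TMT10plex mass spectrometry in mild NP-40 versus SDS extracts, three biological replicates.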
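Throughout, for thermal stability score vs G1/S (z-score of summed log2 fold changes over temperatures): synchronized HeLa Kyoto cells, proteins quantified by TMT10plex mass spectrometry, three biological replicates, mitosis taken 0.5 h after nocodazole release, G1/S directly after double thymidine block.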

As to “MPEDQAGAAMEEASPYSLLDICLNFLTTHLEKFCSARQDGTLCLQEPGVFPQEVADRLLRTMAFHGLLNDGTVGIFRGNQMRLKRACIRKAKISAVAFRKAFCHHKLVELDATGVNADITITDIISGLGSNKWIQQNLQCLVLNSLTLSLEDPYERCFSRLSGLRALSITNVLFYNEDLAEVASLPRLESLDISNTSITDITALLACKDRLKSLTMHHLKCLKMTTTQILDVVRELKHLNHLDISDDKQFTSDIALRLLEQKDILPNLVSLDVSGRKHVTDKAVEAFIQQRPSMQFVGLLATDAGYSEFLTGEGHLKVSGEANETQIAEALKRYSERAFFVREALFHLFSLTHVMEKTKPEILKLVVTGMRNHPMNLPVQLAASACVFNLTKQDLAAGMPVRLLADVTHLLLKAMEHFPNHQQLQKNCLLSLCSDRILQDVPFNRFEAAKLVMQWLCNHEDQNMQRMAVAIISILAAKLSTEQTAQLGTELFIVRQLLQIVKQKTNQNSVDTTLKFTLSALWNLTDESPTTCRHFIENQGLELFMRVLESFPTESSIQQKVLGLLNNIAEVQELHSELMWKDFIDHISSLLHSVEVEVSYFAAGIIAHLISRGEQAWTLSRSQRNSLLDDLHSAILKWPTPECEMVAYRSFNPFFPLLGCFTTPGVQLWAVWAMQHVCSKNPSRYCSMLIEEGGLQHLYNIKDHEHTDPHVQQIAVAILDSLEKHIVRHGRPPPCKKQPQARLN [ZYG11B]”, the “solubility in G1/S (log2)” value with HeLa Kyoto [1] is -0.136. Also, the thermal stability score with HeLa Kyoto [2] (setting [5]) turned out to be 2.24; with HeLa Kyoto [2] (cell cycle stage: mitosis) it was 0.857. Also, the melting temperature with HeLa Kyoto [3] (cell cycle stage: G1/S) amounted to 52.4 °C; in the series with HeLa Kyoto [3] (cell cycle stage: mitosis), 52.3 °C. For the same substance, the “solubility change mitosis (log2)” value in the series on HeLa Kyoto [4] was -0.182.

On to “MCAARLAAAAAAAQSVYAFSARPLAGGEPVSLGSLRGKVLLIENVASLUGTTVRDYTQMNELQRRLGPRGLVVLGFPCNQFGHQENAKNEEILNSLKYVRPGGGFEPNFMLFEKCEVNGAGAHPLFAFLREALPAPSDDATALMTDPKLITWSPVCRNDVAWNFEKFLVGPDGVPLRRYSRRFQTIDIEPDIEALLSQGPSCA [GPX1]”, for which the “solubility in G1/S (log2)” value in the series with HeLa Kyoto [1] came out at 0.559. Moreover, the thermal stability score was 1.13 in the series with HeLa Kyoto [2] (setting [5]) and -0.307 in the series on HeLa Kyoto [2] (cell cycle stage: mitosis). Also, the melting temperature in the series on HeLa Kyoto [3] (cell cycle stage: G1/S) was determined as 56.8 °C; in the series with HeLa Kyoto [3] (cell cycle stage: mitosis) it was 56.6 °C. In the series with HeLa Kyoto [4], the “solubility change mitosis (log2)” value was -0.15.

“MDPECAQLLPALCAVLVDPRQPVADDTCLEKLLDWFKTVTEGESSVVLLQEHPCLVELLSHVLKVQDLSSGVLSFSLRLAGTFAAQENCFQYLQQGELLPGLFGEPGPLGRATWAVPTVRSGWIQGLRSLAQHPSALRFLADHGAVDTIFSLQGDSSLFVASAASQLLVHVLALSMRGGAEGQPCLPGGDWPACAQKIMDHVEESLCSAATPKVTQALNVLTTTFGRCQSPWTEALWVRLSPRVACLLERDPIPAAHSFVDLLLCVARSPVFSSSDGSLWETVARALSCLGPTHMGPLALGILKLEHCPQALRTQAFQVLLQPLACVLKATVQAPGPPGLLDGTADDATTVDTLLASKSSCAGLLCRTLAHLEELQPLPQRPSPWPQASLLGATVTVLRLCDGSAAPASSVGGHLCGTLAGCVRVQRAALDFLGTLSQGTGPQELVTQALAVLLECLESPGSSPTVLKKAFQATLRWLLSSPKTPGCSDLGPLIPQFLRELFPVLQKRLCHPCWEVRDSALEFLTQLSRHWGGQADFRCALLASEVPQLALQLLQDPESYVRASAVTAMGQLSSQGLHAPTSPEHAEARQSLFLELLHILSVDSEGFPRRAVMQVFTEWLRDGHADAAQDTEQFVATVLQAASRDLDWEVRAQGLELALVFLGQTLGPPRTHCPYAVALPEVAPAQPLTEALRALCHVGLFDFAFCALFDCDRPVAQKSCDLLLFLRDKIASYSSLREARGSPNTASAEATLPRWRAGEQAQPPGDQEPEAVLAMLRSLDLEGLRSTLAESSDHVEKSPQSLLQDMLATGGFLQGDEADCY [BRAT1]”: in the series on HeLa Kyoto [1], the “solubility in G1/S (log2)” value was 0.0286. In addition, the thermal stability score with HeLa Kyoto [2] (setting [5]) was found to be 1.55; in the series on HeLa Kyoto [2] (cell cycle stage: mitosis), 4.01. Moreover, the melting temperature was found to be 46.5 °C in the series on HeLa Kyoto [3] (cell cycle stage: G1/S) and 48.4 °C with HeLa Kyoto [3] (cell cycle stage: mitosis). Further, in the series with HeLa Kyoto [4], the “solubility change mitosis (log2)” value is -0.141.

“MEGGLADGEPDRTSLLGDSKDVLGPSTVVANSDESQLLTPGKMSQRQGKEAYPTPTKDLHQPSLSPASPHSQGFERGKEDISQNKDESSLSMSKSKSESKLYNGSEKDSSTSSKLTKKESLKVQKKNYREEKKRATKELLSTITDPSVIVMADWLKIRGTLKSWTKLWCVLKPGVLLIYKTQKNGQWVGTVLLNACEIIERPSKKDGFCFKLFHPLEQSIWAVKGPKGEAVGSITQPLPSSYLIIRATSESDGRCWMDALELALKCSSLLKRTMIREGKEHDLSVSSDSTHVTFYGLLRANNLHSGDNFQLNDSEIERQHFKDQDMYSDKSDKENDQEHDESDNEVMGKSEESDTDTSERQDDSYIEPEPVEPLKETTYTEQSHEELGEAGEASQTETVSEENKSLIWTLLKQVRPGMDLSKVVLPTFILEPRSFLDKLSDYYYHADFLSEAALEENPYFRLKKVVKWYLSGFYKKPKGLKKPYNPILGETFRCLWIHPRTNSKTFYIAEQVSHHPPISAFYVSNRKDGFCLSGSILAKSKFYGNSLSAILEGEARLTFLNRGEDYVMTMPYAHCKGILYGTMTLELGGTVNITCQKTGYSAILEFKLKPFLGSSDCVNQISGKLKLGKEVLATLEGHWDSEVFITDKKTDNSEVFWNPTPDIKQWRLIRHTVKFEEQGDFESEKLWQRVTRAINAKDQTEATQEKYVLEEAQRQAARDRKTKNEEWSCKLFELDPLTGEWHYKFADTRPWDPLNDMIQFEKDGVIQTKVKHRTPMVSVPKMKHKPTRQQKKVAKGYSSPEPDIQDSSGSEAQSVKPSTRRKKGIELGDIQSSIESIKQTQEEIKRNIMALRNHLVSSTPATDYFLQQKDYFIIFLLILLQVIINFMFK [OSBPL8]”: the “solubility in G1/S (log2)” value in the series on HeLa Kyoto [1] is -0.118. For the same substance, the thermal stability score with HeLa Kyoto [2] (setting [5]) amounted to 0.167; in the series with HeLa Kyoto [2] (cell cycle stage: mitosis), 0.896. The melting temperature in the series with HeLa Kyoto [3] (cell cycle stage: G1/S) was determined as 49.8 °C; in the series on HeLa Kyoto [3] (cell cycle stage: mitosis), 50.9 °C. The “solubility change mitosis (log2)” value with HeLa Kyoto [4] is -0.172.

In the case of NFIC, the “solubility in G1/S (log2)” value in the series with HeLa Kyoto [1] was determined as 0.109. Besides, the figures for the thermal stability score in the series on HeLa Kyoto [2] (setting [5]) and in the series with HeLa Kyoto [2] (cell cycle stage: mitosis) were -1.32 and 2.11, respectively. Further, the figures for the melting temperature in the series with HeLa Kyoto [3] (cell cycle stage: G1/S) and in the series with HeLa Kyoto [3] (cell cycle stage: mitosis) were 56.8 °C and 57.3 °C, respectively. Further, the “solubility change mitosis (log2)” value in the series with HeLa Kyoto [4] stood at 0.0157.

FAM136A: the “solubility in G1/S (log2)” value in the series with HeLa Kyoto [1] came out at 0.101. The thermal stability score in the series on HeLa Kyoto [2] (setting [5]) is -3.91; with HeLa Kyoto [2] (cell cycle stage: mitosis), -5.74. The results for the melting temperature in the series with HeLa Kyoto [3] (cell cycle stage: G1/S) and with HeLa Kyoto [3] (cell cycle stage: mitosis) were 52.9 °C and 53.3 °C, respectively. For the same substance, the “solubility change mitosis (log2)” value with HeLa Kyoto [4] is 0.0886.

These data come from the supplement of paper PMC5998384.
